The labels stand for the following.
B1: His6-Sec22 (soluble domain, aa1-188) (domain or fragment, S. cerevisiae, UniProt P22214 1-188, looked up)
chain: MIKSTLIYREDGLPLCTSVDNENDPSLFEQKQKVKIVVSRLTPQSATEATLESGSFEIHYLKKSMVYYFVICESGYPRNLAFSYLNDIAQEFEHSFANEYPKPTVRPYQFVNFDNFLQMTKKSYSDKKVQDNLDQLNQELVGVKQIMSKNIEDLLYRGDSLDKMSDMSSSLKETSKRYRKSAQKINFD
notes: Sec22, Golgi R-SNARE, S. cerevisiae, soluble domain aa1-188; also called Golgi R-SNARE; source: E. coli (pRIL plasmid), purified (Ni-NTA); not shown: His6, N-terminal, kept
B2: Vam3-GST (cytoplasmic domain of Vam3, aa1-264) (domain or fragment, S. cerevisiae, UniProt Q12241 1-264, looked up)
chain: MSFFDIEAQSSKGNSQQEPQFSTNQKTKELSNLIETFAEQSRVLEKECTKIGSKRDSKELRYKIETELIPNCTSVRDKIESNILIHQNGKLSADFKNLKTKYQSLQQSYNQRKSLFPLKTPISPGTSKERKDIHPRTEAVRQDPESSYISIKVNEQSPLLHNEGQHQLQLQEEQEQQQQGLSQEELDFQTIIHQERSQQIGRIHTAVQEVNAIFHQLGSLVKEQGEQVTTIDENISHLHDNMQNANKQLTRADQHQRDRNKCGK
notes: Vam3, vacuole Qa-SNARE, S. cerevisiae, cytoplasmic domain aa1-264, no transmembrane domain; TEV site between SNARE and GST; also called Vam3 cytoplasmic domain; vacuole Qa-SNARE; not shown: GST, C-terminal, kept
B7: GST-Sed5 SNARE domain (aa170-319) (domain or fragment, S. cerevisiae, UniProt Q01590 170-319, looked up)
chain: ANKDRWQKLTTDTGHAPADDQTQSNHAADLTTYNNSNPFMTSLLDESSEKNNNSSNQGELSFPQNDSQLMLMEEGQLSNNVYLQERNRAVETIESTIQEVGNLFQQLASMVQEQGEVIQRIDANVDDIDLNISGAQRELLKYFDRIKSNR
notes: Sed5, Golgi Qa-SNARE, S. cerevisiae, aa170-319, lacks the N-peptide, the Habc domain and the transmembrane domain; also called Golgi Qa-SNARE lacking N-peptide and Habc domain; not shown: GST, N-terminal, kept

Common to all, as to conditions: both partners purified
Assay [1] concerns the target T1, GST-Sed5 full cytoplasmic domain (aa1-319) (S. cerevisiae, UniProt Q01590 1-319).
T1 construct: Sed5, Golgi Qa-SNARE, S. cerevisiae, full cytoplasmic domain aa1-319 with N-peptide and Habc segments, no transmembrane domain; also called GST-Sed5FL; Sed5FL; not shown: GST, N-terminal, kept
T1 sequence (looked up): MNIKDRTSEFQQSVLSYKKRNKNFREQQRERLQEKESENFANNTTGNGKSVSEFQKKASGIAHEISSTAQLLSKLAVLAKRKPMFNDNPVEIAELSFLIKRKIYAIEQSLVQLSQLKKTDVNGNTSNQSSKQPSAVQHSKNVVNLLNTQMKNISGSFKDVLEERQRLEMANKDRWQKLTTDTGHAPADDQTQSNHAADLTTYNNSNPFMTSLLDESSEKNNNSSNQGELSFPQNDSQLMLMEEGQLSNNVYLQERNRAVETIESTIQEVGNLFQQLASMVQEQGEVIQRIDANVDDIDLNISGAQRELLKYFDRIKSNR
In words: pull-down; SNARE complex assembly: 125 pmol GST-tagged Qa-SNARE on glutathione sepharose 4B; >=fivefold molar excess of Qb-, Qc- and R-SNAREs overnight at 4°C; SM Assay Buffer (20 mM HEPES, 150 mM NaCl, 2 mM 2-mercaptoethanol, 0.05% Anapoe-X-100, pH 7.4); washed.

The target of the next assay is T2, Vps33 (S. cerevisiae, UniProt P20795 1-691).
T2 construct: Vps33, SM protein of the vacuole, S. cerevisiae; also called vacuole SM protein; late endolysosomal SM; source: insect cells, Baculovirus system, purified
T2 sequence (looked up): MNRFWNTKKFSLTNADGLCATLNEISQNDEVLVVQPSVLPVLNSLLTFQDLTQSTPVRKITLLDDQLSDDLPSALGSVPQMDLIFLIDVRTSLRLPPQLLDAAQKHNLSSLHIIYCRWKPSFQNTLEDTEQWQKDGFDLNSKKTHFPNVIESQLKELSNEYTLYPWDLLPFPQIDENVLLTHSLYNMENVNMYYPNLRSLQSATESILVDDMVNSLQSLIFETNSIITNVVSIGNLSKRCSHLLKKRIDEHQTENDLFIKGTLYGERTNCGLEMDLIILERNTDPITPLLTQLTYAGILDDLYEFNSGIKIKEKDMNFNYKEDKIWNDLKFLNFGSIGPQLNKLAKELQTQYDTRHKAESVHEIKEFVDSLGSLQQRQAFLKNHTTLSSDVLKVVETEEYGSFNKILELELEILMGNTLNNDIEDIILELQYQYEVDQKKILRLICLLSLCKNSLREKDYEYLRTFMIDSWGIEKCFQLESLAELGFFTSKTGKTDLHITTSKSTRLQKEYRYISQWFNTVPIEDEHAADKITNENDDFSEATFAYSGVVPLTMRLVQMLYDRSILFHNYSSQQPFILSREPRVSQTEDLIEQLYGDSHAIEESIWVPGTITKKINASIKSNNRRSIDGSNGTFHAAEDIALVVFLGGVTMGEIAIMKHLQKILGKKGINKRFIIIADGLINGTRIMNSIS
Briefly: pull-down; SNARE complexes (500 nM) on immobilised Qa-SNARE pre-incubated with Sec17 (20 µM) and Sly1 (10 µM) or Vps33 (2.5 µM) 60 min at 30°C in Disassembly Buffer (SM Assay Buffer, 1 mM ATP, 2 mM MgCl2), then Sec18 (300 nM); what stayed on the resin after complete disassembly, SDS-PAGE.

Assay [2] addresses B2. In words: pull-down; SNARE complex assembly: 125 pmol GST-tagged Qa-SNARE on glutathione sepharose 4B; >=fivefold molar excess of Qb-, Qc- and R-SNAREs overnight at 4°C; SM Assay Buffer (20 mM HEPES, 150 mM NaCl, 2 mM 2-mercaptoethanol, 0.05% Anapoe-X-100, pH 7.4); washed.
In assay [3] the target is B2. In words: pull-down; re-assembly with added SNAREs: as a9, but soluble Qb, Qc and R-SNAREs (~3 µM each) added along with the EDTA quench, 30 min at 30°C.
Assay [4] concerns the target B1. The description is as above.
The target in assay [5] is T3, Sly1 (full length, aa1-667) (S. cerevisiae, UniProt P22213 1-666).
T3 construct: Sly1, Golgi SM protein, S. cerevisiae, printed as full-length aa1-667; construct His6-(tev)-Sly1; as I recall the UniProt entry has 666 residues; the printed 667 may count the stop codon; also called His6-Sly1; Golgi SM protein; source: E. coli (pRIL plasmid), purified (Ni-NTA)
T3 sequence (looked up): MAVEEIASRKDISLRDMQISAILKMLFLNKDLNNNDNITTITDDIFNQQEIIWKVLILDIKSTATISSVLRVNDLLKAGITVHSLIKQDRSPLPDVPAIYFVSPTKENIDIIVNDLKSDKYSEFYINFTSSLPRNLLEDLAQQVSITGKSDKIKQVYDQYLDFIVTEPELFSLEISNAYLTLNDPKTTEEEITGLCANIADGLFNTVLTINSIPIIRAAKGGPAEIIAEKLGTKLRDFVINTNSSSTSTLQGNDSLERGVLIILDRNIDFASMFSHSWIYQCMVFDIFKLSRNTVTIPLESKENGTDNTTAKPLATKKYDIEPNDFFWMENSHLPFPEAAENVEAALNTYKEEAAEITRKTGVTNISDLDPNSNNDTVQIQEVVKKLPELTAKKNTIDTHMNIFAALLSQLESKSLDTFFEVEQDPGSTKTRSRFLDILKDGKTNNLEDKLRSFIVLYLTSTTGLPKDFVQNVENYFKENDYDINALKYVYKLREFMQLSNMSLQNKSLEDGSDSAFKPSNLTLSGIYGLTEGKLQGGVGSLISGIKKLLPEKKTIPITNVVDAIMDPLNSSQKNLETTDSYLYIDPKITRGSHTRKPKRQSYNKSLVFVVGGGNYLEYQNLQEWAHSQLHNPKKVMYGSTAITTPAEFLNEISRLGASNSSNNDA
Briefly: pull-down; SNARE complexes (500 nM) on immobilised Qa-SNARE pre-incubated with Sec17 (20 µM) and Sly1 (10 µM) or Vps33 (2.5 µM) 60 min at 30°C in Disassembly Buffer (SM Assay Buffer, 1 mM ATP, 2 mM MgCl2), then Sec18 (300 nM); what stayed on the resin after complete disassembly, SDS-PAGE.

Assay [6] addresses B7. In words: pull-down; re-assembly with added SNAREs: as a9, but soluble Qb, Qc and R-SNAREs (~3 µM each) added along with the EDTA quench, 30 min at 30°C.

With B1, the binding result in assay [1] is reported as “binds”.

On to B2, for which the binding result in the assay with Vps33 is given as “binds”.

B3: His7-MBP-Vti1 (soluble domain, aa1-194) (domain or fragment, S. cerevisiae, UniProt Q04338 1-194, looked up)
chain: MSSLLISYESDFKTTLEQAKASLAEAPSQPLSQRNTTLKHVEQQQDELFDLLDQMDVEVNNSIGDASERATYKAKLREWKKTIQSDIKRPLQSLVDSGDRDRLFGDLNASNIDDDQRQQLLSNHAILQKSGDRLKDASRIANETEGIGSQIMMDLRSQRETLENARQTLFQADSYVDKSIKTLKTMTRRLVANK
notes: Vti1, vacuole Qb-SNARE, S. cerevisiae, soluble domain aa1-194; also called vacuole Qb-SNARE; source: E. coli (pRIL plasmid), purified (Ni-NTA); not shown: His7, N-terminal, kept; MBP, N-terminal, kept
In the case of B3, the binding result in assay [2] is recorded as “binds”.

B4: His6-GFP-Vam7 SNARE domain (aa190-316) (domain or fragment, S. cerevisiae, UniProt P32912 190-316, looked up)
chain: PSTEVTRRAALLRSLLKECDDIGTANIAQDRGRLLGVATSDNSSTTEVQGRTNNDLQQGQMQMVRDQEQELVALHRIIQAQRGLALEMNEELQTQNELLTALEDDVDNTGRRLQIANKKARHFNNSA
notes: Vam7, vacuole Qc-SNARE, S. cerevisiae, SNARE domain aa190-316; also called vacuole Qc-SNARE; source: E. coli (pRIL plasmid), purified (Ni-NTA); not shown: His6, N-terminal, kept; GFP (A207K), N-terminal, kept
For the molecule B4, the binding result in assay [3] is listed as “binds”.

B5: His6-Nyv1 (soluble domain, aa1-231) (domain or fragment, S. cerevisiae, UniProt Q12255 1-231, looked up)
chain: MKRFNVSYVEVIKNGETISSCFQPFQKNENYGTITSANEQITPVIFHNLIMDMVLPKVVPIKGNKVTKMSMNLIDGFDCFYSTDDHDPKTVYVCFTLVDMPKILPIRILSGLQEYESNATNELLSSHVGQILDSFHEELVEYRNQTLNSSGNGQSSNGNGQNTISDIGDATEDQIKDVIQIMNDNIDKFLERQERVSLLVDKTSQLNSSSNKFRRKAVNIKEIMWWQKVKN
notes: Nyv1, vacuole R-SNARE, S. cerevisiae, soluble domain aa1-231; also called vacuole R-SNARE; source: E. coli (pRIL plasmid), purified (Ni-NTA); not shown: His6, N-terminal, kept
Regarding B5, the binding result in assay [3] is “binds”.

B6: His6-Bos1 (soluble domain, aa1-222) (domain or fragment, S. cerevisiae, UniProt P25385 1-222, looked up)
chain: MNALYNHAVKQKNQLQQELARFEKNSVTAPISLQGSISATLVSLEKTVKQYAEHLNRYKEDTNAEEIDPKFANRLATLTQDLHDFTAKFKDLKQSYNENNSRTQLFGSGASHVMDSDNPFSTSETIMNKRNVGGASANGKEGSSNGGGLPLYQGLQKEQSVFERGNAQLDYILEMGQQSFENIVEQNKILSKVQDRMSNGLRTLGVSEQTITSINKRVFKDK
notes: Bos1, Golgi Qb-SNARE, S. cerevisiae, soluble domain aa1-222; also called Golgi Qb-SNARE; source: E. coli Rosetta2 pLys, purified (Ni-NTA); not shown: His6, N-terminal, kept
Turning to B6, the binding result in assay [1] is on record as “binds”.

For the molecule B7, the binding result in assay [4] and in assay [5] was “binds” in each case.

B8: His7-MBP-Bet1 (soluble domain, aa1-123) (domain or fragment, S. cerevisiae, UniProt P22804 1-123, looked up)
chain: MSSRFAGGNAYQRDTGRTQLFGPADGSNSLDDNVSSALGSTDKLDYSQSTLASLESQSEEQMGAMGQRIKALKSLSLKMGDEIRGSNQTIDQLGDTFHNTSVKLKRTFGNMMEMARRSGISIK
notes: Bet1, Golgi Qc-SNARE, S. cerevisiae, soluble domain aa1-123; also called Golgi Qc-SNARE; source: E. coli (pRIL plasmid), purified (Ni-NTA); not shown: His7, N-terminal, kept; MBP, N-terminal, kept
Regarding B8, the binding result in assay [6] and in assay [1] was “binds” each time.

The record behind these values is paper PMC4060006, “SM proteins Sly1 and Vps33 co-assemble with Sec17 and SNARE complexes to oppose SNARE disassembly by Sec18” (eLife, 2014).
